Test results as given in patent publication US20260167718A1 (Merck Sharp & Dohme, published 2026).
Where two headings read alike, the source gives them in different places. One block for each binder: values may come before it.

How the values were obtained:
[1] = target: T1, human ILT3 expressed on cells (human, UniProt Q8NHJ6 22-448); assay: cELISA, CHO human ILT3 cells
T1 construct: whole, on cells; also called huILT3; LILRB4

[2] = target: T2, Rhesus monkey ILT3 expressed on CHO-K1 cells (rhesus monkey (Macaca mulatta)); assay: cELISA, CHO rhesus ILT3 cells
T2 construct: whole, on cells; also called rhILT3; CHO-rhesus ILT3

[3] = target: T3, Human ILT3 (LILRB4) extracellular domain with C-terminal His Tag (human, UniProt Q8NHJ6 22-259); assay: SPR (Biacore), human ILT3-His; Table 7 value; Table 5 gives 1.79 × 10^-09 M
T3 construct: the claims count residues 1-238 as the extracellular domain; also called human ILT3-His; ILT3_H
Experimental: The binding kinetics and affinities of anti-human ILT3 clones for human or rhesus ILT3-His tagged recombinant protein were measured by surface plasmon resonance using a Biacore™ T200 system (GE Healthcare, Piscataway, NJ). HBS-EP+ buffer (BR-1006-69) was used as the running buffer. Anti-human Fc antibody (Human Fc Capture Kit, BR100839, GE Healthcare) was immobilized via amine coupling chemistry in all four flow cells on a Series S CM5 sensor chip (BR100530 or 29149603, GE Healthcare) following manufacturer instructions. Flow cell 1 was used as reference for background subtraction and was not used for capture. […] Following each injection cycle, all four flow cells were regenerated using 30 second injection of 3M MgCl₂ solution at a flow rate of 10 μL/minute. Reference subtracted sensorgrams were fit to a 1:1 Langmuir Binding Model in the Biacore™ T200 Evaluation Software (Version 2.0) to determine the association (ka) and dissociation (kd) rate constants and the equilibrium dissociation constant KD (=kd/ka).
Table 7 summarizes the binding kinetics and affinities for the ani-human ILT3 antibodies to recombinant human or rhesus ILT3.

[4] = target: T2, Rhesus monkey ILT3 expressed on CHO-K1 …; assay: cELISA, CHO rhesus ILT3 cells; remark: listed apart in the source
Experimental: (§1) Mouse anti-human ILT3 antibodies were tested for binding to human ILT3, and cross-reactivity to Rhesus monkey ILT3, human ILT5, human ILT7, human ILT8, and human ILT11 expressing CHO-K1 cells using a cell-based ELISA format. CHO-K1 cells were plated in 96-well tissue-culture plates in 50 μL of DMEM/F12, 10% BCS and gentamycin (CHO-K1 media). Cells were plated at either 2×10⁴ cells/well two days prior to the assay or 4×10⁴ cells/well one day prior to the assay. Media was removed from the wells prior to adding the test samples. Purified antibody was serially-diluted in CHO-K1 media and added to the CHO-K1 plates. The samples were incubated at room temperature for 30-60 minutes and plates were washed three times with PBS/05% Tween-20 using the cell wash program on the Biotek EL405x Select CW plate washer. Binding was detected using an HRP-conjugated goat anti-mouse IgG (Southern Biotech cat #1031-05) secondary antibody added at a 1:2000 dilution in CHO-K1 media and incubated at room temperature for 30-60 minutes. Assay plates were washed as above and developed with TMB and stopped with TMB stop solution (KPL cat #50-85-06). The absorbance at 450 nm—620 nm was determined. Mouse IgG1 (MIgG1) served as a control.

[5] = target: T1, human ILT3 expressed on cells; assay: cELISA, CHO human ILT3 cells; remark: listed apart in the source
Experimental: as §1

[6] = target: T3, Human ILT3 (LILRB4) extracellular …; assay: SPR (Biacore), human ILT3-His
[7] = target: T4, rhesus ILT3-His tagged recombinant protein (rhesus monkey (Macaca mulatta)); assay: SPR (Biacore), rhesus ILT3-His
T4 construct: also called ILT3_MM; not shown: His tag
T4 chain: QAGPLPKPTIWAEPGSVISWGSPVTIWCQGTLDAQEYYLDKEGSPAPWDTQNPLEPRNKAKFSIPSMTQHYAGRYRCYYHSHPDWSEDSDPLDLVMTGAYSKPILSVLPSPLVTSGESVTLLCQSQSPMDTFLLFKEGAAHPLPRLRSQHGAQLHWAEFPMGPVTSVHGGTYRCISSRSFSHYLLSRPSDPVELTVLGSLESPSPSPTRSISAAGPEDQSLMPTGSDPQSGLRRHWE

[8] = target: T4, rhesus ILT3-His tagged recombinant …; assay: SPR (Biacore), rhesus ILT3-His
Outline: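 Antibodies captured on anti-human Fc surface, with human or rhesus ILT3-His as analyte in HBS-EP+ running buffer; reference flow cell subtracted, regeneration with 3M MgCl₂. ka and kd obtained from 1:1 Langmuir fits, KD = kd/ka.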

[9] = target: T5, human ILT8 expressed on CHO-K1 cells (human, UniProt Q6PI73 24-481); assay: cell-based ELISA on CHO-K1 cells expressing human ILT8, HRP anti-mouse IgG, OD 450-650 nm
T5 construct: whole, on cells; also called CHO-ILT8
Experimental: as §1, with “The absorbance at 450 nm—620 nm was determined.” left out

[10] = target: T3, Human ILT3 (LILRB4) extracellular …; assay: SPR (Biacore), human ILT3-His; remark: listed apart in the source
[11] = target: T6, human ILT11 expressed on CHO-K1 cells (human, UniProt A6NI73 42-299); assay: cell-based ELISA on CHO-K1 cells expressing human ILT11, HRP anti-mouse IgG, OD 450-650 nm
T6 construct: whole, on cells
Experimental: as §1, with “The absorbance at 450 nm—620 nm was determined.” left out

[12] = target: T7, human ILT5 expressed on CHO-K1 cells (human, UniProt O75022 24-631); assay: cell-based ELISA on CHO-K1 cells expressing human ILT5, HRP anti-mouse IgG, OD 450-650 nm
T7 construct: whole, on cells; also called CHO-ILT5
Experimental: as §1, with “The absorbance at 450 nm—620 nm was determined.” left out

[13] = target: T8, human ILT7 expressed on CHO-K1 cells (human, UniProt P59901 24-499); assay: cell-based ELISA on CHO-K1 cells expressing human ILT7, HRP anti-mouse IgG, OD 450-650 nm
T8 construct: whole, on cells
Experimental: as §1, with “The absorbance at 450 nm—620 nm was determined.” left out

T5 sequence (Q6PI73 24-481): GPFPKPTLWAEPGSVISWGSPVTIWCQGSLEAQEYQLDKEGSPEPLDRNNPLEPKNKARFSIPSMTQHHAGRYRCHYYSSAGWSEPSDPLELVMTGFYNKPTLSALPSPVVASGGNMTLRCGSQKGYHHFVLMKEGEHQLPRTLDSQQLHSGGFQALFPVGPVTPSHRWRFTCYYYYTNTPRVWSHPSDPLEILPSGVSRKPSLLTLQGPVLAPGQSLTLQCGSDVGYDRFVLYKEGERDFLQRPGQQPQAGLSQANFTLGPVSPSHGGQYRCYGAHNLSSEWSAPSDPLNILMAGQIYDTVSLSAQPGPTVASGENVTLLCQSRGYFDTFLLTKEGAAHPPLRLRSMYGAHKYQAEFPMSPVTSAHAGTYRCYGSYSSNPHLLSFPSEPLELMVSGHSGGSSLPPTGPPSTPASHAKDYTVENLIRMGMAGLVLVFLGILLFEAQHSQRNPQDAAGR
T6 sequence (A6NI73 42-299): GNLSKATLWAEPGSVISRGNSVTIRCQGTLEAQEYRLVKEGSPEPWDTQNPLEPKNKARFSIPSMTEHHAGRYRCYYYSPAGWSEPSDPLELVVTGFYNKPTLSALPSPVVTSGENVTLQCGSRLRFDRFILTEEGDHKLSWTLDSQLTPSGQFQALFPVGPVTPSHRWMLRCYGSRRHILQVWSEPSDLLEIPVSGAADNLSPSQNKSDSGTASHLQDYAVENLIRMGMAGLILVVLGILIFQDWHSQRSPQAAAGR
T7 sequence (O75022 24-631): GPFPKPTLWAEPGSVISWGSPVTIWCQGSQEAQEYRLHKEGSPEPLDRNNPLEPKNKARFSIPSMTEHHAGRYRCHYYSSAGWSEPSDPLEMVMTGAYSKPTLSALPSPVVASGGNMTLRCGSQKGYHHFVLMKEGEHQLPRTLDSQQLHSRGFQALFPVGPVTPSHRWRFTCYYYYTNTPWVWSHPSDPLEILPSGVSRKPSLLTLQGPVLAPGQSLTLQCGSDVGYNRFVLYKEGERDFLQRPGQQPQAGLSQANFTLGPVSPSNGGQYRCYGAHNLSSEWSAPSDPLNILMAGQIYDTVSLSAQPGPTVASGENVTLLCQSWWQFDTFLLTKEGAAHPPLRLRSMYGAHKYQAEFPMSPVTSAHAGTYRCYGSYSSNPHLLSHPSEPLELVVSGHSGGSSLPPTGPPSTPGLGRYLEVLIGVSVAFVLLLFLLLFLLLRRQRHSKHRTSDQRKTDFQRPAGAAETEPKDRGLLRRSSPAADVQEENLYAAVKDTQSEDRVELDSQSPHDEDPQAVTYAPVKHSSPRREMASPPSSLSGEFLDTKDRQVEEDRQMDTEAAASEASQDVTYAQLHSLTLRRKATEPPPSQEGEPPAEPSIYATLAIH
T8 sequence (P59901 24-499): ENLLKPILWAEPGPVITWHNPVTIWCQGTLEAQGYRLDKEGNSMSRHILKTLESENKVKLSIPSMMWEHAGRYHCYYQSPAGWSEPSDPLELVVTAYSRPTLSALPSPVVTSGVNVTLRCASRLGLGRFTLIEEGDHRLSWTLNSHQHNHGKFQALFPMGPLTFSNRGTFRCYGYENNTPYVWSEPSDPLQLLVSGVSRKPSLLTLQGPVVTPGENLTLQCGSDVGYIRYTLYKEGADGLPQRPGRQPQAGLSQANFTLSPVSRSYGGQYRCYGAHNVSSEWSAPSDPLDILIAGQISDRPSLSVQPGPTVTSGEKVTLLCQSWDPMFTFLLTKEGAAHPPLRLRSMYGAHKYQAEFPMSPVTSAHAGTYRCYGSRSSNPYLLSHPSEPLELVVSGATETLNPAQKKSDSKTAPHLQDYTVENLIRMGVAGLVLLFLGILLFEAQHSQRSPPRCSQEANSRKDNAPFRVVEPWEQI

EC50 [1]: 17.9 µg/mL | EC50 [2]: 25.9 µg/mL | Kd [3]: 713 pM | EC50 [4]: 0.0259 µg/mL | EC50 [5]: 0.0179 µg/mL | Kd [6]: 1790 pM | Kd [7]: 946 pM | Kd [8]: 995 pM
B1: Rat anti-ILT3 mAb 40A6 IgG2a/Kappa (antibody, V domains shown)
VH: QVQLKESGPGLVQASETLSLTCTVSGFSLTSYSINWVRQSSGKGPEWMGRFWYDEGIAYNLTLESRLSISGDTSKNQVFLKMNSLRTGDTGTYYCTRDRDTVGITGWFAYWGQGTLVTVSS
VL: ETVMTQSPTSLSASIGERVTLNCKASQSVGVNVDWYQQTPGQSPKLLIYGSANRHTGVPDRFTGSGFGSDFTLTISDVEPEDLGVYYCLQYGSVPYTFGAGTKLELK
notes: Rat IgG2a/Kappa; also called p40A6; LB184.40A6.1C1

EC50 [1]: 0.0155 µg/mL | binding result [9]: no binding (tested: 10000 ng/ml) | Kd [10]: 658 pM | EC50 [2]: 23.2 µg/mL | binding result [11]: no binding (tested: 10000 ng/ml) | binding result [12]: no binding (tested: 10000 ng/ml) | binding result [13]: no binding (tested: 10000 ng/ml) | EC50 [4]: 0.0232 µg/mL | EC50 [5]: 0.0155 µg/mL | Kd [6]: 658 pM | Kd [7]: 24400 pM | Kd [8]: 24400 pM
B2: Mouse anti-ILT3 mAb 52B8 IgG2a/Kappa (antibody)
heavy: EVQLVESGGDLVKPGGSLKLSCAASGFTFSNYGMSWVRQTPDRRLEWVATISGGGDYTNYPDSMRGRFTISRDNAKNTLYLQMSSLKSEDTAMYYCGRRLWFRSLYYAMDYWGQGTSVTVSSAKTTAPSVYPLAPVCGDTTGSSVTLGCLVKGYFPEPVTLTWNSGSLSSGVHTFPAVLQSDLYTLSSSVTVTSSTWPSQSITCNVAHPASSTKVDKKIEPRGPTIKPCPPCKCPAPNLLGGPSVFIFPPKIKDVLMISLSPIVTCVVVDVSEDDPDVQISWFVNNVEVHTAQTQTHREDYNSTLRVVSALPIQHQDWMSGKEFKCKVNNKDLPAPIERTISKPKGSVRAPQVYVLPPPEEEMTKKQVTLTCMVTDFMPEDIYVEWTNNGKTELNYKNTEPVLDSDGSYFMYSKLRVEKKNWVERNSYSCSVVHEGLHNHHTTKSFSRTPGK
light: NIVLTQSPASLAVSLGQRATISCRASEKVDSFGNSFMHWYQQKPGQPPKLLIYLTSNLDSGVPARFSGSGSRTDFALTIDPVEADDAATYYCQQNNEDPYTFGGGTKLEIKRADAAPTVSIFPPSSEQLTSGGASVVCFLNNFYPKDINVKWKIDGSERQNGVLNSWTDQDSKDSTYSMSSTLTLTKDEYERHNSYTCEATHKTSTSPIVKSFNRNEC
notes: also called p52B8; LB181.52B8.1B1
